The values that follow come from PMC11630628 (Molecular Plant, 2024).

A word on the Kd: it is the concentration at which binding is half-saturated.

Experiment [1] relates to FERONIA (FER) / EFR/FLS2-BAK1 complex. Details: method as in Stegmann et al., 2017. As to conditions: ref Stegmann et al., 2017; cited from earlier work.
The subject of experiment [2] is ANJEA-FERONIA (ANJ–FER) receptor complex. Further details: method as in Liu et al., 2021. As to conditions: ref Liu et al., 2021; cited from earlier work.
In experiment [3] the test system is leaf senescence in Arabidopsis. As to conditions: ref Gully et al., 2015; cited from earlier work. The text has this: Senescence, a crucial biological event in plant development, involves the coordinated breakdown of cellular components to recycle nutrients, aiding adaptation to changing environments. It optimizes nutrient storage and reuse, particularly in leaves, the primary photosynthetic organs. Initiation of leaf senescence prompts various physiological changes, including chlorophyll (Chl) reduction and macromolecule degradation, enabling nutrient recycling that supports the growth of seeds and fruits ([Yang et al., 2014]; [Kim et al., 2018]; [Woo et al., 2019]; [Guo et al., 2021]). Efficient senescence ...

Experiment [4] addresses T1, MIK2 ectodomain (MIK2^LRR, residues 45-707) fused with a 6x His-MBP tag (Arabidopsis thaliana, UniProt Q8VZG8 45-707).
T1 chain: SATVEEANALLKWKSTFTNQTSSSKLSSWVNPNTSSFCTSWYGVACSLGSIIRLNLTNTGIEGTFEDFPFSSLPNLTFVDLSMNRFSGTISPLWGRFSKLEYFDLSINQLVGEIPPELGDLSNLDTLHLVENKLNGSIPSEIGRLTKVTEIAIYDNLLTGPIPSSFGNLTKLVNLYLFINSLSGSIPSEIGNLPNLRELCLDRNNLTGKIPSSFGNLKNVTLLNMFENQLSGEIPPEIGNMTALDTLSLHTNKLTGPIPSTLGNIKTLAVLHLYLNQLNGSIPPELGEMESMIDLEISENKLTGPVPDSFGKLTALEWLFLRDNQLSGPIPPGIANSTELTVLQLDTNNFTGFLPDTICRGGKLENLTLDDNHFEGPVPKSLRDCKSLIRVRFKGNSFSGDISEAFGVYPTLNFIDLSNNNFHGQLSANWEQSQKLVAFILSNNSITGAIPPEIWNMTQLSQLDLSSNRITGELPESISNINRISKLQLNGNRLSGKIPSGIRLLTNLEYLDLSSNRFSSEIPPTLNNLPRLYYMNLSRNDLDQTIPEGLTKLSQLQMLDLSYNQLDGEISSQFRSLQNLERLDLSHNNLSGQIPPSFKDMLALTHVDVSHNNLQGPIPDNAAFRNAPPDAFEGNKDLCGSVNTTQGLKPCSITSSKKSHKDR
Nature of the experiment: MST; in presence of competitor SCOOP12.

The target of experiment [5] is T2, MIK2 ectodomain (MIK2^LRR, residues 45-707) fused with a 6x His-MBP tag (Arabidopsis thaliana, UniProt Q8VZG8 45-707).
T2 construct: ectodomain residues 45-707, without the putative N-terminal signal peptide; Cloned into pET41 with a 6x His-MBP tag; no cleavage of the tag is told; also called His-MBP-tagged MIK2^LRR; ectodomain of MIK2; source: E. coli BL21, purified (Mag-Beads His-Tag Protein Purification Kit)
T2 sequence (looked up): T1 chain
Description: MST; Figure 5F, titrations in the absence of the competing peptide; conditions of these titrations not told apart from the others. As to conditions: both partners purified.

In experiment [6] the target is T2, MIK2 ectodomain (MIK2^LRR, residues …). Description: MST; Monolith NT.115; 0.05 μM 5-FAM-labelled peptide, MIK2^LRR diluted from 20 μM in ddH2O, 10 min at room temperature; 20% LED power, 40% MST power. As to conditions: both partners purified.
In experiment [7] the target is T3, MIK2 ectodomain (MIK2^LRR, residues 45-707) fused with a 6x His-MBP tag (Arabidopsis thaliana), Q8VZG8.
T3 chain: T1 chain
Nature of the experiment: MST; Figure 5F, competition: 0.5 μM FAM-SCOOP10 and 15 μM MIK2^LRR mixed 10 min at room temperature in the dark, then a range of concentrations of SCOOP12, 10 min; 20% LED power, 20% MST power; the reverse set-up (SCOOP10 on MIK2-SCOOP12) is not described.

For experiment [8], the target named is T1, MIK2 ectodomain (MIK2^LRR, residues …). Nature of the experiment: MST; in presence of competitor SCOOP10.

Ends that are not written are not given here. * marks the point of attachment. 5FAM = O=C1OC2(c3ccc(O)cc3Oc3cc(O)ccc32)c2ccc(C(=O)*)cc21

“RALF23: RAPID ALKALINIZATION FACTOR (RALF) peptide (ATRRYISYGALRRNTIPCSRRGASYYNCRRGAQANPYSRGCSAITRCRRS; Protein RALF-like 23; UniProt Q9LUS7 89-138, looked up)”: the “effect on FER-mediated receptor complex assembly” value in experiment [1] is reported as “suppresses the formation of the EFR/FLS2-BAK1 complex”. Further, the “competition with POLLEN COAT PROTEIN B-class peptides” value in experiment [2] is recorded as “compete with the POLLEN COAT PROTEIN B-class peptides”.

Regarding “plant elicitor peptide PEP1 (ATKVKAKQRGKEKVSSGRPGQHN; Elicitor peptide 1; UniProt Q9LV87 70-92, looked up) [plant elicitor peptide, one of the first plant phytocytokines]”, in experiment [3], the leaf senescence modulation result is “function as a leaf senescence modulator in Arabidopsis”.

5FAM-PNGDIFTGPSGSGHGGGR [SCOOP10 peptide labeled with FAM at the N-terminus (5'-FAM-SCOOP10)]: the Kd in experiment [4] stood at 279000 nM; in experiment [5] it was 753 nM; in experiment [6], 13.5 ± 1.47 nM.

For PVRSSQSSQAGGR (modifications not checked) [SCOOP12 peptide (unlabeled, used as competitor), B3H7I1 44-78], the KD printed for the inhibition of the SCOOP10-MIK2 interaction by SCOOP12 in experiment [7] turned out to be 279000 nM.

Take 5FAM-PVRSSQSSQAGGR [SCOOP12 peptide labeled with 5-FAM at the N terminus (FAM-SCOOP12)]: the Kd came to 1160 nM in experiment [8] and 22 ± 3.02 nM in experiment [6].
